From paper PMC9300119, “Proteins DotY and DotZ modulate the dynamics and localization of the type IVB coupling complex of Legionella pneumophila” (Molecular Microbiology, 2021)

T1: DotL with a Strep-tag at the C-terminus (Legionella pneumophila (strain Lp01), UniProt Q5ZYC6 1-783)
T1 construct: also called DotL_(Strep); DotL_(strep)
T1 sequence: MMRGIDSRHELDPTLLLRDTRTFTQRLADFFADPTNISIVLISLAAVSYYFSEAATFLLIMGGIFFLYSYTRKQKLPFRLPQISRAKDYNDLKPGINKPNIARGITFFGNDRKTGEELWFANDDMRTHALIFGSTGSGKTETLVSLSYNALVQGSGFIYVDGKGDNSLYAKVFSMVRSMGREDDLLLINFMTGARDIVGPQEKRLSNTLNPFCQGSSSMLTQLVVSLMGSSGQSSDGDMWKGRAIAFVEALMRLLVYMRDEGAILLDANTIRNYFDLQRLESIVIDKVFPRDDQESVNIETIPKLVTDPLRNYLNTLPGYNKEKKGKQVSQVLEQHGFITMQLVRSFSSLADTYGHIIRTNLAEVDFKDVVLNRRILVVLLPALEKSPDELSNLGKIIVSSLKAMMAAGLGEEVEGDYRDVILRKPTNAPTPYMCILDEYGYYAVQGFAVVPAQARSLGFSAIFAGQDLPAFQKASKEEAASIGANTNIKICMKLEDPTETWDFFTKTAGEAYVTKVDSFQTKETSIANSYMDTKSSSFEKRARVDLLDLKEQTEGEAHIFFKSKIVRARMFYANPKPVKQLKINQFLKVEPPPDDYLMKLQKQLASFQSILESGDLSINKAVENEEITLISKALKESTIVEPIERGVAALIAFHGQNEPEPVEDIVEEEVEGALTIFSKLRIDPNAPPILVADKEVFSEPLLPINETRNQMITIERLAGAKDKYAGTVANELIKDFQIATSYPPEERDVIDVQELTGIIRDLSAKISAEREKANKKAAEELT

B1: DotN (natural protein)
chain: MNVNQTMADNQQRCELKLIASPGSWRLYSARKIDERFKSYEQKIFQRDRYTCQFCGFQARLYQDIVNLDGDYTNNRLSNLVTACCFCAQCFFVESVGVGGYGGGTLIYLPELTQAELNSLCHVLFCAITNDTGYKSSAQNIYRSFKFRSQIVEEKFGEGTSDPAIFGQLMIDSGVNSEEIREKLFKNIRLLPSRAKFRKQIEKWAASALEEIAD
B2: DotY (natural protein)
chain: MPKYTLPTRDALLKAMQVGETSIEAAEYMATRFEQILTKAKLLPECNDMLEKIKEYAQFVKFKLLSSAQVWSGQERPTSDYQNTQENKAEFLASHLEGLPSGLKLEVAIGDDAKILRGFSSNGKMVEGDQLKTMDGLLEGWLAKNSLAISGGAVVKIDNTGNQTKVDPQEIRQLINDSEKGVAKYFADKGVGMEVAQRTYQEPKALETKREEIRQEIESGAEAPTTQSIR
notes: also called lpg0294
B3: DotM (natural protein)
chain: MYIEMAQQQQQSGSDNSMAPVWIVILLFITAYFVWALAHQYIVSFVFTINIWQARLVNLFLNNQLLANQIYLMQTLDPNTVNWDQMVTVMRAVGDYMRYPVICILVVLAFVLYNSNVTLKYRKTYDMKSLRAQEQFNWPAIMPIVKEDLVSQDVNKGPWAMALTPMEFARKYNLLRKDDALLDNPVPGEEMTAGIRRGDAKRVFTMQLGPYWDGFERCSPQAYALSAVFMARMNRDRDAANNILKVLDKTFVDGKPDFSVARPVMKKYQNSELVQEVVAKHAYVLTVIASLLEAAREDGVVPSSEFLWLKPVDRRLWYMLNCVGRQTPYSEVAGPFAHWKAEKEMGRRSLVPMIDEAIRALEIAVKEVRLTPRQMEELEP
B4: DotZ (natural protein)
chain: MDEIKKDDELSQWLSTYGTITAERILGRYNISLPQDEILEAINIPSSFYRHLLQIPLKNVLNGIVIQQASDYHVYAQKLLIDYLLSGESSKEPDSQGAGTRESLEDERQRLVQLGDEFHKLELEQDNLIASSQASLMKISIDWNTKLETTLSKLNSLYKNTNSKIKKNAIRKALIKAFIHCDLVKDQSQKNKYQLIDKLNQTLAVSVGAELKESILTNLSELFQILEALNTKLDEFTDRTNHLSQQAKSFRTQFYEVILRIIELIKLLPEYKIDPAQDAINREPLYFDRTIGER
notes: also called lpg1549

Legend:
[1] = biological target: T1, DotL with a Strep-tag at the C-terminus; experiment: cryo-EM structure; conditions: both partners purified
DotZ = biological target: B4; experiment: cryo-EM structure; conditions: both partners purified
[2] = biological target: T1, DotL with a Strep-tag at the C-terminus; experiment: affinity purification with mass spectrometry; conditions: partners not purified
DotM = biological target: B3; experiment: cryo-EM structure; conditions: both partners purified

## B1
[1]
  binding result: binds
DotZ
  binding result: binds

## B2
DotZ
  binding result: binds

## B3
[2]
  binding result: binds

## B4
DotM
  binding result: binds
